From patent CN101098892A (HOFFMANN LA ROCHE, dated 2008)
Positions count from the first letter of the chain named. Values belong to the molecule of their own block, whether it stands above or below them.

Assays:
[1] = molecular target: 猕猴IL-13Rα1 (转染的Ba/F3细胞) (猕猴 (Cyno)); test: FACS on Ba/F3 cells transfected with cynomolgus IL-13Rα1, secondary antibody alone
[2] = molecular target: 猕猴IL-13Rα1 (转染的Ba/F3细胞) (猕猴 (Cyno)); test: FACS, transfected against parental Ba/F3 cells, secondary antibody alone
[3] = molecular target: IL-13Rα1 (人B细胞、单核细胞、TF-1细胞、HFL-1细胞、支气管平滑肌细胞上) (human) (UniProt P78552); test: cell-based or functional assay
[4] = molecular target: 人IL-13Rα1 (表达人IL-13Rα1和人IL-4Rα的CHO细胞) (human) (UniProt P78552); test: displacement of 125I-IL-13 from CHO cells expressing human IL-13Rα1 and IL-4Rα
[5] = molecular target: 猕猴IL-13Rα1 (转染的Ba/F3细胞) (猕猴 (Cyno)); test: FACS, transfected against parental Ba/F3 cells
[6] = molecular target: 猕猴IL-13Rα1 (转染的Ba/F3细胞) (猕猴 (Cyno)); test: FACS on Ba/F3 cells transfected with cynomolgus IL-13Rα1
[7] = molecular target: 猕猴IL-13Rα1 (转染的Ba/F3细胞) (猕猴 (Cyno)); test: FACS, transfected against parental Ba/F3 cells, negative control
[8] = molecular target: 猕猴IL-13Rα1 (转染的Ba/F3细胞) (猕猴 (Cyno)); test: FACS on Ba/F3 cells transfected with cynomolgus IL-13Rα1, negative control
[9] = molecular target: 猕猴IL-13Rα1 (转染的Ba/F3细胞) (猕猴 (Cyno)); test: FACS, transfected against parental Ba/F3 cells; remark: listed apart in the source
[10] = molecular target: 猕猴IL-13Rα1 (转染的Ba/F3细胞) (猕猴 (Cyno)); test: FACS on Ba/F3 cells transfected with cynomolgus IL-13Rα1, 10 μg/ml antibody
[11] = molecular target: T1, IL-13Rα1 (人B细胞、单核细胞、TF-1细胞、HFL-1细胞、支气管平滑肌细胞上) (human, UniProt P78552 22-427); test: cell-based or functional assay
T1 sequence (looked up): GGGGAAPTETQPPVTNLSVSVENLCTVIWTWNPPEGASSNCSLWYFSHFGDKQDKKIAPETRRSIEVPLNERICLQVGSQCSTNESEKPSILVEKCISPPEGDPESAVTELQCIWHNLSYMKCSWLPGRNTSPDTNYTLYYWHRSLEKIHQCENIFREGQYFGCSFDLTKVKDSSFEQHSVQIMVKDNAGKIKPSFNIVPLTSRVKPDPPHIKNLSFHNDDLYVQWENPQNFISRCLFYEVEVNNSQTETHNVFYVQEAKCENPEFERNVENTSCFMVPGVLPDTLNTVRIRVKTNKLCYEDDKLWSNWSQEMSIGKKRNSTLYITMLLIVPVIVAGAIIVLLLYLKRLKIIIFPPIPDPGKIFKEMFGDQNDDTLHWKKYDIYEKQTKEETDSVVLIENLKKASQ

[12] = molecular target: T2, 从hIL-13Rα1:hFc嵌合蛋白切割的hIL-13Rα1的细胞外结构域 (human, UniProt P78552 22-343); test: SPR Biacore 3000, C1 chip, antibody captured by anti-hFcγ, cleaved hIL-13Rα1 ECD as analyte, 1:1 Langmuir
T2 construct: extracellular domain; also called 切割的hIL-13Rα1分子
T2 sequence (looked up): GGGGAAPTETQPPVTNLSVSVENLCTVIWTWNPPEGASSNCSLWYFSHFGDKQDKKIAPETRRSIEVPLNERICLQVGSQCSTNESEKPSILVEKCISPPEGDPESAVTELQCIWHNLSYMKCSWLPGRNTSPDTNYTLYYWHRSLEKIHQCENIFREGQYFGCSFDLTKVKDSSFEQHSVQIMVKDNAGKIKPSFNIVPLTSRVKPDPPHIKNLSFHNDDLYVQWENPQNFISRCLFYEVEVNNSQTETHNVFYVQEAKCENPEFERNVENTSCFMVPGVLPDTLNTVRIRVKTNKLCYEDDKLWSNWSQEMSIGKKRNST

[13] = molecular target: 猕猴IL-13Rα1 (转染的Ba/F3细胞) (猕猴 (Cyno)); test: FACS on Ba/F3 cells transfected with cynomolgus IL-13Rα1, 10 μg/ml antibody; remark: listed apart in the source

- MFIBa/F3 Cyno IL-13Rα1 [1]: 5.5 MFI
- 在Cyno IL-13Rα1存在下MFI的增加倍数 [2]: 2.2
Molecule: 仅抗人IgG-FITC (antibody)

- B淋巴细胞上CD23上调的抑制 IC50 [3]: 13.6 nM
- IL-4诱导的增殖的IC50 [3]: 74.4 nM
- IL-13诱导的Stat-6磷酸化的抑制 IC50 [3]: 18.6 nM
- IL-13诱导的TF-1细胞增殖的抑制 IC50 [3]: 13.5 nM
- 人单核细胞上IL-13诱导的CD23上调的抑制 IC50 [3]: 62.9 nM
- 抑制嗜曙红粒细胞趋化因子释放 平均IC50 [3]: 11.5 nM
- IC50 [4]: 84.8 nM
- 在Cyno IL-13Rα1存在下MFI的增加倍数 [5]: 18
- MFIBa/F3 Cyno IL-13Rα1 [6]: 21.2 MFI
Molecule: 多克隆山羊抗人IL-13Rα1抗体AF152(R&D Systems) (antibody)

- 在Cyno IL-13Rα1存在下MFI的增加倍数 [7]: 6.7
- MFIBa/F3 Cyno IL-13Rα1 [8]: 10.2 MFI
Molecule: 正常人IgG1(Nordic) (antibody)

- 在Cyno IL-13Rα1存在下MFI的增加倍数 [7]: 2.4
- MFIBa/F3 Cyno IL-13Rα1 [8]: 5.7 MFI
Molecule: 正常山羊IgG (antibody)

- 在Cyno IL-13Rα1存在下MFI的增加倍数 [9]: 79.8
- MFIBa/F3 Cyno IL-13Rα1 [10]: 83.7 MFI
- IL-13诱导的TF-1细胞增殖的抑制 IC50 [11]: 9.21 nM
- Kd [12]: 0.62 nM
- koff [12]: 0.00065 s⁻¹
- kon [12]: 1.1e+06 M⁻¹ s⁻¹
B1: HuMab LC5002-002 (antibody, human IgG1, V domains shown)
VH: EVQLLESGGGLVQPGGSLRLSCAASGFTFNIYAMNWVRQAPGKGLEWVVISGRGITTYYADSVKGRFTISRDNSKNTLYLQMNSLRADDTAVYYCAKGSSSWTDFDYWGQGTLVTVSS
VL: DIQMTQSPSSLSASVGDRVTITCRASQGISRWVAWYQQKPEKAPKSLIYAASSLQSGVPSRFSGSGSGTDFTLTISSLQPEDFATYYCQQYNSYPWTFGQGTKVEIK
notes: Human IgG1 kappa antibody from a HuMab mouse hybridoma; also called hu-MAB<h-IL-13Ralpha>LC.5002-002 (DSM ACC2709)

- MFIBa/F3 Cyno IL-13Rα1 [13]: 82.4 MFI
- 在Cyno IL-13Rα1存在下MFI的增加倍数 [5]: 79
- IL-13诱导的Stat-6磷酸化的抑制 IC50 [11]: 5.98 nM
- IL-13诱导的TF-1细胞增殖的抑制 IC50 [11]: 3.07 nM
B2: HuMab LC5002-003 (antibody, V domains shown)
VH: EVQLLESGGDLIQPGGSLRLSCAASGFTFNIYAMNWVRQAPGKGLEWVSVISGRGITTYYADSVKGRFTISRDNSKNTLYLQMDSLRAEDTAVYYCAKGSSYWTDFDYWGQGTLVTVSS
VL: B1 VL with R31S, V33L
